Source: patent publication US10357539B2, “Use of peptides that block metadherin-SND1 interaction as treatment for cancer” (THE TRUSTEES OF PRINCETON UNIVERSITY, priority 2014, dated 2019)

T1: SND1 (Homo sapiens, UniProt Q7KZF4)
T1 construct: Full-length HA-tagged SND1 was co-expressed with full-length Myc-tagged wild-type (WT) or mutant MTDH in HEK293T cells; expressed in transfected cells; host or cells: HEK293T
T1 sequence (Q7KZF4 1-910): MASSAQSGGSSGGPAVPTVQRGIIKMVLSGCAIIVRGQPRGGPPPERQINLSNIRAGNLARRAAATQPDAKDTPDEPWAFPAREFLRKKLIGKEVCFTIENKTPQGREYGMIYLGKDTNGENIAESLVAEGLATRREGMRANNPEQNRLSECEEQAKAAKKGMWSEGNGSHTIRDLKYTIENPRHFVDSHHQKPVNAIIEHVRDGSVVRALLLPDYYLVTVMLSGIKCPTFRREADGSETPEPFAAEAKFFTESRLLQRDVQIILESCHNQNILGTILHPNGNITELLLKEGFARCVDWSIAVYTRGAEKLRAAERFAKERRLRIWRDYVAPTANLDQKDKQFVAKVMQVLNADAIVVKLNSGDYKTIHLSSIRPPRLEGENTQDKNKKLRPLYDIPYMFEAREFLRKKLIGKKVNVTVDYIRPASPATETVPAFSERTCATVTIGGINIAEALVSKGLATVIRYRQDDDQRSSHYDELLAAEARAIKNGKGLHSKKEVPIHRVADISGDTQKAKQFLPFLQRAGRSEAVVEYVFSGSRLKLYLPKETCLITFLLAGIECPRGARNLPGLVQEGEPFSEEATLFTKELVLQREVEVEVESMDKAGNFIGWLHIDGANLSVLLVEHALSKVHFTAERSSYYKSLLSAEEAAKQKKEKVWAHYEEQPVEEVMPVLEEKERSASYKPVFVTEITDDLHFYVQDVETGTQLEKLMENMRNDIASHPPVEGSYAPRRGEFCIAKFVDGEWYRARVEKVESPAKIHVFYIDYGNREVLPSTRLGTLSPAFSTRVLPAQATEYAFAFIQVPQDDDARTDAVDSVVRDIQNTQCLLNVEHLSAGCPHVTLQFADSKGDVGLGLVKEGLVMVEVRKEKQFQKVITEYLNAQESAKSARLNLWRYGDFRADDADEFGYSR

T2: SND1 (Homo sapiens, UniProt Q7KZF4)
T2 construct: 15 μg of His-SND1 (16-339) was added to the resin; made in house; host or cells: E. coli DH5α
T2 sequence (Q7KZF4 16-339): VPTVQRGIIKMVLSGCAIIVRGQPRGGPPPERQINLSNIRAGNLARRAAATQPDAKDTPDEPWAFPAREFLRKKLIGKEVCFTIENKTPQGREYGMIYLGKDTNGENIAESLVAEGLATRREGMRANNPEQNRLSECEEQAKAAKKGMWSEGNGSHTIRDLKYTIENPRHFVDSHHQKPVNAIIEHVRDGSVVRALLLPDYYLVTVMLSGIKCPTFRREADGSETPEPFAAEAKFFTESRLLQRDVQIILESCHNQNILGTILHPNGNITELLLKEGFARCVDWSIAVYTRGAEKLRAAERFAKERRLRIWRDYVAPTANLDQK


Columns and labels:
SND1 [1] = biological target: T1, SND1; test: Co-immunoprecipitation of full-length Myc-MTDH (WT or mutant) and HA-SND1 in HEK293T cells; type: cell-based; details: HEK293T cell lysates, immunoprecipitation and immunoblot
From the text: (§1) FIGS. 7A-E represents determination of key regions and residues mediating the MTDH-SND1 interaction. (FIG. 7A) Schematics of MTDH fragments and mutants with indicated SND1-binding capability. + indicates binding and − indicates no binding based on results shown below. Two putative nuclear localization signals are residues 432-451 for NLS2 and residues 561-580 for NLS3. In the enlarged view of the minimal binding region 386-407, 9 residues were targeted for mutagenesis in the current study. […] (FIG. 7B) Pulldown of His6-SND1AC by GST-tagged MTDH fragments with indicated boundaries. The bound proteins were examined by SDS-PAGE and visualized by Coomassie blue staining. (FIG. 7C) Pulldown of His6-SND1ΔC by GST-tagged WT or triple mutant MTDH fragments (364-582). For (FIG. 7B) and (FIG. 7C), 1/10 of the His6-SND1ΔC input was shown, and GST alone was used as a negative control. Representative results of 3 independent experiments are shown. (FIG. 7D, FIG. 7E) Lysates from HEK293T cells expressing the indicated ectopic human SND1, AGO2 or MTDH were immunoprecipitated with anti-Myc and immunoblotted with the indicated antibodies.
(§2) (FIG. 22A) In vitro pull-down of SND1 (16-339) by GST-tagged MTDH (364-582) harboring WT or mutant sequence. The proteins bound to GS4B were examined on SDS-PAGE and visualized by Coomassie blue staining. (FIG. 22B) In vitro pull-down of WT and mutant SND1 (16-339) by GST-tagged MTDH (364-582). The bound proteins were examined as in (FIG. 22A). For both (FIG. 22A) and (FIG. 22B), experiments were repeated three times; representative results are shown. The normalized percentage of binding was averaged from three experiments; mean±SEM was shown below the data. (FIG. 22C) HEK293T cells were transfected with human HA-SND1, WT Myc-MTDH or Myc-MTDH with indicated single point mutation. Lysates were immunoprecipitated with anti-Myc antibody and immunoblotted with the indicated antibodies. (FIG. 22D) HEK293T cells were transfected with human Myc-MTDH, WT HA-SND1 or mutant HA-SND1 with indicated single point mutations or deletions. Lysates were immunoprecipitated with anti-Myc and immunoblotted with the indicated antibodies.
Immunoprecipitation and western blot For immunoprecipitation (IP) experiments, cultured cells were washed in cold PBS and lysed in lysis buffer (20 mM Tris pH 7.4, 0.15 M NaCl, 1 mM EDTA, 1 mM EGTA, 1% Tx-100, 0.0025 M Na2P2O7, 1 mM α-glycerolphosphate, 1 mM Na3VO4, and 1 mM NaF) with an EDTA-free protease inhibitor mixture (Roche Applied Science) and PMSF. Cell lysates were then incubated on ice for 10 min, centrifuged, and precleared by incubating with protein A/G beads (Santa Cruz Biotechnology) for 1 h at 4° C. For IP bead preparation, 30 μl of protein A/G beads were incubated with 5 μg of antibodies for 2 h at 4° C. IPs were carried out for overnight at 4° C., and beads were centrifuged, washed and subsequently boiled for 5 min in SDS protein loading buffer to elute bound protein. IP lysates were subjected to western blotting with indicated antibodies.
Immunoprecipitation and western blot: For in vivo immunoprecipitation (IP) experiments, cultured cells were washed in cold PBS and lysed in lysis buffer (20 mM Tris pH 7.4, 0.15 M NaCl, 1 mM EDTA, 1 mM EGTA, 1% Tx-100, 0.0025 M Na2P2O7, 1 mM β-glycerolphosphate, 1 mM Na3VO4, and 1 mM NaF) with an EDTA-free protease inhibitor mixture (Roche Applied Science) and PMSF. Cell lysates were then incubated on ice for 10 min, centrifuged, and precleared by incubating with protein A/G beads (Santa Cruz Biotechnology) for 1 h at 4° C. For IP bead preparation, 30 μl of protein A/G beads were incubated with 5 μg of antibodies for 2 h at 4° C. IPs were carried out for overnight at 4° C., and beads were centrifuged, washed and subsequently boiled for 5 min in SDS protein loading buffer to elute bound protein. IP lysates were subjected to western blotting with indicated antibodies.

SND1 [2] = biological target: T2, SND1; test: GST-mediated pull-down of SND1 by GST-tagged MTDH fragments and mutants; type: binding; details: SND1 (16-339); GST-tagged MTDH (364-582)
From the text: as §1, §2
GST-Mediated Pull-Down Assay: ˜20 μg of GST-MTDH (different truncation forms and site mutants) was bound to 10 μl of glutathione resin via GST tag. The resin was washed with 200 μl assay buffer (25 mM Tris, PH8.0, 150 mM NaCl, 3 mM DTT) three times to remove the excess unbound protein. 15 μg of His-SND1 (16-339) was added to the resin in a 100 μl volume suspended in the assay buffer with 2 mg/ml of BSA. The mixture was washed with 200 μl assay buffer twice before examined by SDS-PAGE, and visualized by Coomassie blue staining. The experiments were repeated 3 times and the ratio of SND1 associated with GST-MTDH was analyzed by ImageJ.

| Molecule | interaction of full-length MTDH (WT or mutant) with HA-SND1 (SND1 [1]) | SND1-binding of MTDH (364-582) point mutants, in vitro (SND1 [2]) |
| --- | --- | --- |
| WT MTDH: full-length Myc-tagged wild-type human MTDH (protein, UniProt Q86UE4 1-582, looked up, full-length Myc tag) MAARSWQDELAQQAEEGSARLREMLSVGLGFLRTELGLDLGLEPKRYPGWVILVGTGALGLLLLFLLGYGWAAACAGARKKRRSPPRKREEAAAVPAAAPDDLALLKNLRSEEQKKKNRKKLSEKPKPNGRTVEVAEGEAVRTPQSVTAKQPPEIDKKNEKSKKNKKKSKSDAKAVQNSSRHDGKEVDEGAWETKISHREKRQQRKRDKVLTDSGSLDSTIPGIENTITVTTEQLTTASFPVGSKKNKGDSHLNVQVSNFKSGKGDSTLQVSSGLNENLTVNGGGWNEKSVKLSSQISAGEEKWNSVSPASAGKRKTEPSAWSQDTGDANTNGKDWGRSWSDRSIFSGIGSTAEPVSQSTTSDYQWDVSRNQPYIDDEWSGLNGLSSADPNSDWNAPAEEWGNWVDEERASLLKSQEPIPDDQKVSDDDKEKGEGALPTGKSKKKKKKKKKQGEDNSTAQDTEELEKEIREDLPVNTSKTRPKQEKAFSLKTISTSDPAEVLVKNSQPIKTLPPATSTEPSVILSKSDSDKSSSQVPPILQETDKSKSNTKQNSVPPSQTKSETSWESPKQIKKKKKARRET | pulled down | – |
| E400R: MTDH single point mutant E400R (protein, listed as Homo sapiens) MAARSWQDELAQQAEEGSARLREMLSVGLGFLRTELGLDLGLEPKRYPGWVILVGTGALGLLLLFLLGYGWAAACAGSRKKRRSPPRKREEAAAVPAAAPDDLALLKNLRSEEQKKKNRKKLSEKPKPNGRTVEVAEGEAVRTPQSVTAKQPPEIDKKNEKSKKNKKKSKSDAKAVQNSSRHDGKEVDEGAWETKISHREKRQQRKRDKVLTDSGSLDSTIPGIENTITVTTEQLTTASFPVGSKKNKGDSHLNVQVSNFKSGKGDSTLQVSSGLNENLTVNGGGWNEKSVKLSSQISAGEEKWNSVSPASAGKRKAEPSAWSQDTGDANTNGKDWGRSWSDRSIFSGIGSTAEPVSQSTTSDYQWDVSRNQPYIDDEWSGLNGLSSADPNSDWNAPAERWGNWVDEERASLLKSQEPIPDDQKVSDDDKEKGEGALPTGKSKKKKKKKKKQGEDNSTAQDTEELEKEIREDLPVNTSKTRPKQEKAFSLKTISTSDPAEVLVKNSQPIKTLPPATSTEPSVILSKSDSDKSSSQVPPILQETDKSKSNTKQNSVPPSQTKSETSWESPKQIKKKKKARRET | – | barely had any effect |
| N395A: MTDH mutant N395A (protein, left off: a dimerising Fc or GST) YQWDVSRNQPYIDDEWSGLNGLSSADPNSDWAAPAEEWGNWVDEERASLLKSQEPIPDDQKVSDDDKEKGEGALPTGKSKKKKKKKKKQGEDNSTAQDTEELEKEIREDLPVNTSKTRPKQEKAFSLKTISTSDPAEVLVKNSQPIKTLPPATSTEPSVILSKSDSDKSSSQVPPILQETDKSKSNTKQNSVPPSQTKSETSWESPKQIKKKKKARRET | – | barely had any effect |
| N403A: MTDH mutant N403A (protein, left off: a dimerising Fc or GST) YQWDVSRNQPYIDDEWSGLNGLSSADPNSDWNAPAEEWGAWVDEERASLLKSQEPIPDDQKVSDDDKEKGEGALPTGKSKKKKKKKKKQGEDNSTAQDTEELEKEIREDLPVNTSKTRPKQEKAFSLKTISTSDPAEVLVKNSQPIKTLPPATSTEPSVILSKSDSDKSSSQVPPILQETDKSKSNTKQNSVPPSQTKSETSWESPKQIKKKKKARRET | – | barely had any effect |
| E400A: MTDH mutant E400A (protein, left off: a dimerising Fc or GST) YQWDVSRNQPYIDDEWSGLNGLSSADPNSDWNAPAEAWGNWVDEERASLLKSQEPIPDDQKVSDDDKEKGEGALPTGKSKKKKKKKKKQGEDNSTAQDTEELEKEIREDLPVNTSKTRPKQEKAFSLKTISTSDPAEVLVKNSQPIKTLPPATSTEPSVILSKSDSDKSSSQVPPILQETDKSKSNTKQNSVPPSQTKSETSWESPKQIKKKKKARRET | – | barely had any effect |
